How the values were obtained:
EPHB2 = EPHB2 (UniProt P29323); assay: phosphorylation enrichment, bacterial display (enrichment ratio); higher = better substrate or ligand; peptides without Tyr show the background
Fer (mouse) = assay: as above
Fyn = Fyn (UniProt P06241); assay: as above
Jak2 = Jak2 (UniProt O60674); assay: as above
FGFR3 = FGFR3 (UniProt P22607); assay: as above
MERTK = MERTK (UniProt Q12866); assay: as above
Hck = Hck (UniProt P08631); assay: as above
c-Src = assay: as above
Fes = Fes (UniProt P07332); assay: as above
FGFR1 = FGFR1 (UniProt P11362); assay: as above
EPHB1 = EPHB1 (UniProt P54762); assay: as above
EPHB1, sequence (P54762 whole entry, looked up): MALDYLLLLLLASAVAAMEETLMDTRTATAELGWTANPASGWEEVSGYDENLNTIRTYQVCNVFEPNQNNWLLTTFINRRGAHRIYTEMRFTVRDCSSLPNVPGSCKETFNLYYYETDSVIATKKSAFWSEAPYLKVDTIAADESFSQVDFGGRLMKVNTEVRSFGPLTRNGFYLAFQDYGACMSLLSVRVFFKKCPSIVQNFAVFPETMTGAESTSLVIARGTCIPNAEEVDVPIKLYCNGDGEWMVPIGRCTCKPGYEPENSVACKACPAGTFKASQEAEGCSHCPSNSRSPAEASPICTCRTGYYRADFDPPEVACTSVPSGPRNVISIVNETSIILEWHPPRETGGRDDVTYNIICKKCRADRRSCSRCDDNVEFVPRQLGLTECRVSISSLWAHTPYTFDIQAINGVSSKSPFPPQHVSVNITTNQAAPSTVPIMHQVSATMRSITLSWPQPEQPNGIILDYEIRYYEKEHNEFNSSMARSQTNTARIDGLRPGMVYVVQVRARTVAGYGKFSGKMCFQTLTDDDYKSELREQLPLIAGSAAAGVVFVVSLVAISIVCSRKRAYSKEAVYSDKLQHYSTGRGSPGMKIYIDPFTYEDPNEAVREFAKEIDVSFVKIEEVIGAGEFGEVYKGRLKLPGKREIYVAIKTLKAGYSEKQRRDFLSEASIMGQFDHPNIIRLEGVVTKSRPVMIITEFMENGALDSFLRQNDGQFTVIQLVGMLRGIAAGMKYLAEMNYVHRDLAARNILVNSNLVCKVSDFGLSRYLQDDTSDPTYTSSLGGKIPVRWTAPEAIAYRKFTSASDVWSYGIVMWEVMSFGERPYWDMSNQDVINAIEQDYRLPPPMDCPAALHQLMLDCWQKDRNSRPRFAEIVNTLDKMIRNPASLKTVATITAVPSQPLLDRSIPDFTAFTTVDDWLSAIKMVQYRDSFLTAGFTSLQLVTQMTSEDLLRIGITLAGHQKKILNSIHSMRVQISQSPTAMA

c-Abl (mouse) = assay: as above
AncSZ = assay: as above
SHP2-C SH2 = assay: SH2 binding enrichment of the phosphorylated peptide, bacterial display (enrichment ratio); higher = better substrate or ligand; peptides without Tyr show the background
Grb2 SH2 = Grb2 SH2 (UniProt P62993); assay: as above
c-Src SH2 = assay: as above
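Wherever SH2 binding enrichment of the phosphorylated peptide, bacterial display is given: peptide library displayed on the E. coli surface as eCPX fusions, selected cells deep-sequenced, score is each peptide's frequency after selection divided by its frequency in the input.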
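Wherever phosphorylation enrichment, bacterial display is given: 11-residue human phosphosite peptides and single-mutation variants displayed on the E. coli surface, counted by deep sequencing, each peptide's frequency after selection divided by its frequency in the unselected input library; frequency after pTyr selection over input frequency; kinase dosed for 20-30% of maximal phosphorylation in three min.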

EPHB2, sequence (P29323 whole entry, looked up): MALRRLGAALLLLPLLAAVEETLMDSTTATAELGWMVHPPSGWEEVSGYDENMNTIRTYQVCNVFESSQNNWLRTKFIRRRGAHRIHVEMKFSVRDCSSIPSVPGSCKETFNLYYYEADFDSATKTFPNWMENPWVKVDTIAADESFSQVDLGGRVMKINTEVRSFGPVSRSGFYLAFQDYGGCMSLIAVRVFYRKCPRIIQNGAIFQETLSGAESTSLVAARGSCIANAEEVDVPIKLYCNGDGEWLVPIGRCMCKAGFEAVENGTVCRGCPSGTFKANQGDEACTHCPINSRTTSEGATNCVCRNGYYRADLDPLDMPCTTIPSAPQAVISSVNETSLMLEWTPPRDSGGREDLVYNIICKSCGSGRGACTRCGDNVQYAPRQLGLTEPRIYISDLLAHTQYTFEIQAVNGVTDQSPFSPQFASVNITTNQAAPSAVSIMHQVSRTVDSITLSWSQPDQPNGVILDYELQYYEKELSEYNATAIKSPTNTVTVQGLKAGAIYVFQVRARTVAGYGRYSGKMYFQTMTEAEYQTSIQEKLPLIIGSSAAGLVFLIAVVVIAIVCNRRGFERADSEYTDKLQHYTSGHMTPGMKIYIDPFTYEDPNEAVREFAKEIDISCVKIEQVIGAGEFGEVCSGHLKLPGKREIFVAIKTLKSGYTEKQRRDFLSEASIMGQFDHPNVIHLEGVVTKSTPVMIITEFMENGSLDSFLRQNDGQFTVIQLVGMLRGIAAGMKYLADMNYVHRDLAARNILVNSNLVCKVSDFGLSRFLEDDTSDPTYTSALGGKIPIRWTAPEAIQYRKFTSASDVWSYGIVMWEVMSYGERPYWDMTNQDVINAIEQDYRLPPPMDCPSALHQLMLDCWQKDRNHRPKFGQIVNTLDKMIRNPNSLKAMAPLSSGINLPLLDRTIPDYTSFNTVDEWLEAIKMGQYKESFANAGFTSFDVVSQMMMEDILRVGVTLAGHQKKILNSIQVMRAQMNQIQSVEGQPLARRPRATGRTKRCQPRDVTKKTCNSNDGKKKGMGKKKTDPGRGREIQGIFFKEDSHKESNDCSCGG
FGFR3, sequence (P22607 whole entry, looked up): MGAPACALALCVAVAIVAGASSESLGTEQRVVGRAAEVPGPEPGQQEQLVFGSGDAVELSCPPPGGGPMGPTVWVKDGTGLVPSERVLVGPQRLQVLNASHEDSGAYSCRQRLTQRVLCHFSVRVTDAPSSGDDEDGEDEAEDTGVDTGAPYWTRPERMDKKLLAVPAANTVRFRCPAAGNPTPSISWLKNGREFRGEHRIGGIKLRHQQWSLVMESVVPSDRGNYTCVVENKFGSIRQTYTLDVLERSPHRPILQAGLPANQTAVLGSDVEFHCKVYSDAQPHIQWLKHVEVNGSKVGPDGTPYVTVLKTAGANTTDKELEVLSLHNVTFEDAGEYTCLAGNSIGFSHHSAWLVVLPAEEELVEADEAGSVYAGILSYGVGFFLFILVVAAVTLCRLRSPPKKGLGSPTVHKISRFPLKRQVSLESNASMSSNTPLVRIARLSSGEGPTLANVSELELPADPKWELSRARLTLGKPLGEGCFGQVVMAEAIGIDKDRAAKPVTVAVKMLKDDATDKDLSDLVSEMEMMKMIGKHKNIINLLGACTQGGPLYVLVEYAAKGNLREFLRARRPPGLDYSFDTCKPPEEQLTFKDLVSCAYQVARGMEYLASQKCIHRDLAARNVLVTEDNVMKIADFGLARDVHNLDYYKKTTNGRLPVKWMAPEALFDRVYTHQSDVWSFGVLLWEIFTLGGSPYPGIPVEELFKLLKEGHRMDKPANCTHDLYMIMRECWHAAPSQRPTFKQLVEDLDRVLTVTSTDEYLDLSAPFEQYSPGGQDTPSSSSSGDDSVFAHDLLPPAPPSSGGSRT
Hck, sequence (P08631 whole entry, looked up): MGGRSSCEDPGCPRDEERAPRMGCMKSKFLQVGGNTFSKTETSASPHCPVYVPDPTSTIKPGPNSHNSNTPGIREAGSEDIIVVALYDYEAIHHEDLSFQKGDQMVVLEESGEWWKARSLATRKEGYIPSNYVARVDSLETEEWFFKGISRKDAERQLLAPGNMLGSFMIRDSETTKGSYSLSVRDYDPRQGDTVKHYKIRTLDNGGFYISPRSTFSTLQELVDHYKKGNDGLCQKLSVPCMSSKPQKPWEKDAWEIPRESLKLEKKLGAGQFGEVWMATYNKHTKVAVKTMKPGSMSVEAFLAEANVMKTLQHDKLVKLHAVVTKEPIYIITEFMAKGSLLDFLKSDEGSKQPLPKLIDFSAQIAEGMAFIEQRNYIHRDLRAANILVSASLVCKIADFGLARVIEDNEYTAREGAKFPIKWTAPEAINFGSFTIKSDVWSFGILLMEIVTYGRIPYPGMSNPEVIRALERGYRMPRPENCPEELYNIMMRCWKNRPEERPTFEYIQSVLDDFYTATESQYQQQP
Jak2, sequence (O60674 whole entry, looked up): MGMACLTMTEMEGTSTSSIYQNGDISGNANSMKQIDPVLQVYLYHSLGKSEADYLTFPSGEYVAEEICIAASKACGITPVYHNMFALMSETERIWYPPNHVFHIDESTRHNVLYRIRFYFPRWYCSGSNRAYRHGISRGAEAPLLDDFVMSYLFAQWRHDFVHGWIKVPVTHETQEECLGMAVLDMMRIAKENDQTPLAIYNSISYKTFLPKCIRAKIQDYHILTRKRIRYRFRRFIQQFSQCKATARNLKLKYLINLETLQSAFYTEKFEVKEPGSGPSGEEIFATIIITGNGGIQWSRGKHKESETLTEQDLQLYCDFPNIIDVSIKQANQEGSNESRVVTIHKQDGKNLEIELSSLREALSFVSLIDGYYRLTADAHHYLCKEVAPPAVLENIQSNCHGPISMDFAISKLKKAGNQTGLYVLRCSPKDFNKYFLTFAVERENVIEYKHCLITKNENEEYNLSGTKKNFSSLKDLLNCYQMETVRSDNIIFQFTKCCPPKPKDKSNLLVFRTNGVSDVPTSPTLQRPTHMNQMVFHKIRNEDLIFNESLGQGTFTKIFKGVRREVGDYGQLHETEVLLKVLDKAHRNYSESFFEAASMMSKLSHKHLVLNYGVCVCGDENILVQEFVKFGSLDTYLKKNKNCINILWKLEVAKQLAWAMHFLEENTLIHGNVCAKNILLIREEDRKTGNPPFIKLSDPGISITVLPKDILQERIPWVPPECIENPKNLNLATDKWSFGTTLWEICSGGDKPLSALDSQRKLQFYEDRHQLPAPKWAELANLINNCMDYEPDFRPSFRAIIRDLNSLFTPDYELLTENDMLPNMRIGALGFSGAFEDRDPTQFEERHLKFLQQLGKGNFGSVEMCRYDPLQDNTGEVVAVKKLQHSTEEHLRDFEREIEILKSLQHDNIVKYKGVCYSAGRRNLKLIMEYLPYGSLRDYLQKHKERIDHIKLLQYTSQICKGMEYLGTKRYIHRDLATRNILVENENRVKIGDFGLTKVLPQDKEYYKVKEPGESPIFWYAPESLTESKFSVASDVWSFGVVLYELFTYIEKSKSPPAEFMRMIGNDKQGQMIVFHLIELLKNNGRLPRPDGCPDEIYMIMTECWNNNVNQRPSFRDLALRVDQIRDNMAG
Fyn, sequence (P06241 whole entry, looked up): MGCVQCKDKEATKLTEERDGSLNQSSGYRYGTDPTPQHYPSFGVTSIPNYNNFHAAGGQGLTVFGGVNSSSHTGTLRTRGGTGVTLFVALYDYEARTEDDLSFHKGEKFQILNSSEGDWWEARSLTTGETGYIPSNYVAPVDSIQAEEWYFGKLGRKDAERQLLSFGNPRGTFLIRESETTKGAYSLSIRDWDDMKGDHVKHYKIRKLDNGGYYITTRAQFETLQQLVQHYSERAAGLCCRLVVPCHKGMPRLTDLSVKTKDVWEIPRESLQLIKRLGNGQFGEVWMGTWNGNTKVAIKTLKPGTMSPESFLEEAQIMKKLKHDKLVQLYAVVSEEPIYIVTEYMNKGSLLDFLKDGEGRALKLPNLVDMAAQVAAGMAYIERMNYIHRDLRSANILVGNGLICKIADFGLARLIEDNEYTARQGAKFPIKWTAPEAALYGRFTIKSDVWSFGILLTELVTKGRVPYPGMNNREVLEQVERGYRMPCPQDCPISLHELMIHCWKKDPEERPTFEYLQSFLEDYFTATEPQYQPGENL

Row | SH2 binding enrichment (SHP2-C SH2) | SH2 binding enrichment (Grb2 SH2) | SH2 binding enrichment (c-Src SH2) | Sequence | phosphorylation enrichment (EPHB2) | phosphorylation enrichment (Fer (mouse)) | phosphorylation enrichment (Fyn) | phosphorylation enrichment (Jak2) | phosphorylation enrichment (FGFR3) | phosphorylation enrichment (MERTK) | phosphorylation enrichment (Hck) | phosphorylation enrichment (c-Src) | phosphorylation enrichment (Fes) | phosphorylation enrichment (FGFR1) | phosphorylation enrichment (EPHB1) | phosphorylation enrichment (c-Abl (mouse)) | phosphorylation enrichment (AncSZ)
1 | 0.658 | 0.876 | 0.489 | FRQLQYCPSVE [CTNND2_Y508_YF] | 0.605 | 0.514 | 0.501 | 0.901 | 0.861 | 0.478 | 0.499 | 0.456 | 1.15 | 0.525 | 0.669 | 0.808 | 0.949
2 | 0.892 | 0.883 | 0.518 | FSDPSYVKQME [CDC5L_Y464_YF] | 0.581 | 0.452 | 0.532 | 0.704 | 1.36 | 0.407 | 0.505 | 0.411 | 0.939 | 0.558 | 0.476 | 0.471 | 0.867
3 | 0.661 | 0.806 | 0.502 | FSGDCYRIQGR [DDR2_Y741_Y740C_YF] | 0.659 | 0.493 | 0.446 | 0.764 | 0.666 | 0.35 | 0.472 | 0.45 | 1.05 | 0.431 | 0.593 | 0.636 | 0.989
4 | 0.72 | 0.772 | 0.626 | FSLPAYMDRRD [COX4I1_Y38] | 0.471 | 0.432 | 0.355 | 0.696 | 0.622 | 0.425 | 0.492 | 0.424 | 0.815 | 0.464 | 0.459 | 0.87 | 0.873
5 | 0.976 | 0.923 | 0.498 | FSMGCYEFSLG [HMGCL_Y198_I200F_YF] | 0.984 | 3 | 0.881 | 1.2 | 1.14 | 0.964 | 0.706 | 1.25 | 1.53 | 0.733 | 1.12 | 1.47 | 2.26
6 | 0.662 | 0.886 | 0.447 | FSPGSNERETF [NF1_Y2192_Y2192N] | 0.605 | 0.538 | 0.484 | 0.849 | 0.583 | 0.414 | 0.484 | 0.424 | 0.856 | 0.53 | 0.408 | 0.599 | 0.835
7 | 0.882 | 0.827 | 0.48 | FSQQVYRVNLS [FAT4_Y480] | 0.48 | 0.495 | 1.01 | 0.762 | 0.516 | 0.409 | 0.392 | 0.623 | 0.729 | 0.49 | 0.563 | 0.532 | 0.658
8 | 0.661 | 0.844 | 0.604 | FTNELYMMMRD [FGFR1_Y730_C725Y_YF] | 1.69 | 0.752 | 1.1 | 0.938 | 1.53 | 3.53 | 1.99 | 1.29 | 1.24 | 1.54 | 3.18 | 0.57 | 1.37
9 | 0.737 | 1.09 | 0.633 | FTRNFYVWAVL [CYBA_Y88_R90W_YF] | 0.383 | 0.466 | 0.427 | 1.31 | 0.756 | 0.454 | 0.473 | 0.508 | 1.42 | 0.498 | 0.573 | 1.61 | 1.25
10 | 0.804 | 0.885 | 0.379 | FVSAAYVKKLD [SPTAN1_Y1020_P1017S] | 0.618 | 0.365 | 0.365 | 0.403 | 0.455 | 0.337 | 0.374 | 0.382 | 0.65 | 0.421 | 0.414 | 0.511 | 0.663
11 | 1.68 | 1.96 | 1.52 | FVSIVYNDFGE [TSC2_Y1650_S1653F] | 0.665 | 0.514 | 0.599 | 0.991 | 0.801 | 0.422 | 0.642 | 0.856 | 1.16 | 0.561 | 0.605 | 0.725 | 1.21
12 | 0.655 | 0.887 | 0.517 | FVTCTYSPALN [TP53_Y126_S121F] | 0.501 | 0.557 | 0.449 | 1.07 | 0.71 | 0.346 | 0.516 | 0.535 | 1.32 | 0.464 | 0.603 | 0.828 | 1.29
13 | 0.632 | 0.933 | 0.39 | GAVGNYSRGLA [MGMT_Y158_G160R] | 0.397 | 0.358 | 0.377 | 0.38 | 0.465 | 0.353 | 0.395 | 0.383 | 0.453 | 0.406 | 0.5 | 0.401 | 0.456
14 | 0.722 | 1.35 | 0.692 | GCKNRYDEDKP [THAP1_Y14_K16E] | 0.497 | 0.452 | 0.49 | 0.617 | 0.722 | 0.431 | 0.596 | 0.438 | 0.808 | 0.606 | 0.51 | 0.512 | 0.856
15 | 1.32 | 1.5 | 1.32 | GCKNRYDKGKP [THAP1_Y14_D17G] | 0.469 | 0.4 | 0.434 | 0.876 | 1.04 | 0.408 | 0.496 | 0.406 | 0.867 | 0.387 | 0.481 | 0.798 | 0.597
16 | 0.908 | 1.06 | 2.25 | GCVRMYELVHR [GLE1_Y135] | 3.69 | 4.34 | 0.599 | 1.01 | 0.71 | 2.95 | 1.64 | 0.761 | 1.28 | 0.498 | 7.65 | 0.754 | 1.07
17 | 0.584 | 0.683 | 0.419 | GDGRFYMMEAI [PGM1_Y66_K68M] | 0.553 | 0.539 | 0.51 | 1.16 | 0.731 | 0.46 | 0.459 | 0.88 | 1.26 | 0.511 | 0.569 | 0.735 | 1.04

Row | SH2 binding enrichment (SHP2-C SH2) | SH2 binding enrichment (Grb2 SH2) | SH2 binding enrichment (c-Src SH2) | Sequence | phosphorylation enrichment (EPHB2) | phosphorylation enrichment (Fer (mouse)) | phosphorylation enrichment (Fyn) | phosphorylation enrichment (Jak2) | phosphorylation enrichment (FGFR3) | phosphorylation enrichment (MERTK) | phosphorylation enrichment (Hck) | phosphorylation enrichment (c-Src) | phosphorylation enrichment (Fes) | phosphorylation enrichment (FGFR1) | phosphorylation enrichment (EPHB1) | phosphorylation enrichment (c-Abl (mouse)) | phosphorylation enrichment (AncSZ)
18 | 0.738 | 0.812 | 0.459 | GDPVQYNRTTD [MLPH_Y454] | 0.551 | 0.435 | 0.412 | 0.959 | 0.7 | 0.429 | 0.381 | 0.452 | 1.04 | 0.465 | 0.521 | 0.78 | 0.705
19 | 0.639 | 0.992 | 0.82 | GDRPVYSEDEQ [CHST6_Y362_Y358D] | 0.702 | 0.653 | 0.698 | 1.27 | 0.872 | 0.565 | 0.662 | 0.673 | 1.57 | 0.667 | 0.812 | 1.06 | 1.54
20 | 0.914 | 0.936 | 0.593 | GEDEPYSEPFA [APBA1_Y183_YF] | 0.523 | 0.512 | 0.588 | 1.02 | 0.68 | 0.493 | 0.599 | 0.598 | 1.06 | 0.603 | 0.485 | 0.598 | 1.34
21 | 0.712 | 0.843 | 0.519 | GESLTYVSTTF [C1orf162_Y120_A121V] | 0.563 | 0.512 | 0.569 | 0.691 | 0.62 | 0.538 | 0.621 | 0.664 | 1.07 | 0.508 | 0.532 | 0.494 | 0.954
22 | 0.999 | 1.06 | 0.478 | GFGGGYGGVLT [KRT19_Y65_A60G_YF] | 0.444 | 0.492 | 0.47 | 0.575 | 0.522 | 0.381 | 0.488 | 0.45 | 0.696 | 0.491 | 0.452 | 0.493 | 0.626
23 | 6.03 | 0.787 | 3.25 | GFPVHYTDMSN [DNMT3B_Y815_V818M] | 0.439 | 0.419 | 0.536 | 0.667 | 0.501 | 0.545 | 0.417 | 0.416 | 0.699 | 0.546 | 0.388 | 0.568 | 0.947
24 | 7.67 | 0.793 | 3.96 | GFPVHYTDVSN [DNMT3B_Y815] | 0.485 | 0.708 | 0.43 | 0.51 | 0.686 | 0.526 | 0.433 | 0.398 | 0.653 | 0.439 | 0.477 | 0.5 | 0.661
25 | 0.663 | 0.774 | 0.479 | GFSRHCEDGFP [CTNND1_Y217_Y217C_YF] | 0.555 | 0.485 | 0.437 | 0.724 | 0.697 | 0.402 | 0.441 | 0.441 | 0.958 | 0.471 | 0.497 | 0.83 | 0.767
26 | 0.834 | 0.645 | 0.443 | GFWPRYVKVGS [NOG_Y172_R167G] | 0.532 | 0.388 | 0.493 | 0.695 | 0.653 | 0.447 | 0.532 | 0.402 | 0.97 | 0.554 | 0.594 | 0.568 | 0.746
27 | 0.714 | 0.761 | 0.505 | GGQVFHNSEFG [FLT4_Y1333_Y1333H_YF] | 0.451 | 0.375 | 0.424 | 0.534 | 0.572 | 0.395 | 0.379 | 0.377 | 0.668 | 0.448 | 0.4 | 0.531 | 0.593
28 | 0.415 | 0.701 | 0.477 | GGYTCCCDGKK [PROS1_Y266_Y266C] | 0.819 | 0.513 | 0.507 | 0.729 | 0.618 | 0.436 | 0.454 | 0.426 | 1 | 0.444 | 0.442 | 0.792 | 0.943
29 | 0.79 | 0.766 | 0.549 | GGYTCYCDGKK [PROS1_Y266] | 0.474 | 0.484 | 0.403 | 1.2 | 0.728 | 0.439 | 0.462 | 0.499 | 1.38 | 0.457 | 0.537 | 0.915 | 0.985
30 | 0.708 | 0.904 | 0.493 | GHLFANDWISI [BEST1_Y227_Y227N_YF] | 0.625 | 0.427 | 0.399 | 0.782 | 0.484 | 0.421 | 0.502 | 0.469 | 0.789 | 0.43 | 0.424 | 0.627 | 0.703
31 | 0.496 | 0.931 | 0.452 | GIADDYDKKKL [EIF1_Y54] | 0.565 | 0.4 | 0.467 | 0.845 | 0.565 | 0.383 | 0.512 | 0.377 | 0.943 | 0.465 | 0.456 | 0.667 | 0.882
32 | 0.757 | 0.882 | 0.481 | GIVEDYRPRFY [ACVRL1_Y421_P424R] | 0.615 | 0.519 | 0.447 | 0.619 | 0.521 | 0.674 | 0.537 | 0.464 | 0.952 | 0.409 | 0.375 | 0.585 | 0.7
33 | 1.31 | 1.11 | 0.735 | GIVTGYLVLKE [DNMT3B_Y588_A585V] | 0.494 | 0.647 | 0.492 | 1.31 | 0.895 | 0.524 | 0.505 | 0.448 | 1.4 | 0.553 | 0.684 | 0.833 | 1.07

From the supplement of paper PMC10065799, “High-throughput profiling of sequence recognition by tyrosine kinases and SH2 domains using bacterial peptide display” (eLife, 2023)
